Assay results published in patent US20230287383A1, “PYRROLYSYL-tRNA SYNTHETASE VARIANTS AND USES THEREOF” (enGenes Biotech GmbH, priority 2020, published 2023).

Legend:
eGFP Y40am [1] = assay: eGFP Y40am amber suppression reporter: ncAA incorporation by o-pairs, fluorescence normalized to cell density; format: cell-based
Protocol: The incorporation of BocK, AllocK and AzK by the MmPyIRS/MmtRNACUA^Pyl and MaPyIRS/MatRNACUA^Pyl o-pairs was compared. The ncAAs were supplemented in the medium at 5 mM. eGFP fluorescence (λex 488 nm; λem 508 nm) was assessed after 4 hours (white bars) and overnight (black bars) induction. Fluorescence units were correlated to cell density (F488;508/D600) and the average of eight technical replicates is shown; the error bars indicate the standard deviation.
The incorporation of AzK by the MmPyIRS/MmtRNACUA^Pyl and the MaPyIRS/MatRNACUA^Pyl wild type and mutant o-pairs was compared. The ncAA was supplemented in the medium at 5 mM. eGFP fluorescence (λex 485 nm; λem 530 nm) was assessed after overnight induction. eGFP wild type was expressed from the same plasmid carrying the MmOP. Fluorescence units were correlated to cell density (F485;530/D600) and the average of at least two technical replicates is shown; the error bars indicate the standard deviation.
FIG. 4: The MaPyIRS M129L V168C/MatRNACUA^Pyl mutant o-pair produces more target protein than MmOP with less or the same amount of AzK. MaOP LC, MaPyIRS M129L V168C/MatRNACUA^Pyl; MmOP, PyIRS and RNACUA^Pyl from M. mazel, both o-pairs were used in BL21(DE3) cells; UNINDUCED, eGFP Y40am expression was not induced; INDUCED, expression was induced with 1 mM IPTG. Different concentrations of AzK were provided in the medium either 2 hours before induction with IPTG, or in parallel with IPTG. eGFP fluorescence (λex 485 nm; λem 530 nm) was assessed after overnight induction and was normalized to cell density (D600). The average of at least 3 replicates is shown and the error bars indicate the standard deviation.
The MaPyIRS M129L+V168C mutant variant was generated, which contains the same amino acid residues in the amino acid binding pocket as the MmPyIRS. […] The efficiency of the incorporation of AzK into the reporter protein eGFP Y40am was assessed by recording the fluorescence intensity normalized to the corresponding cell density and was compared to the fluorescence of wild type eGFP expressed from the same plasmid.

eGFP Y40am [2] = assay: SDS-PAGE analysis of eGFP Y40am expression in the presence of AzK; format: cell-based; settings: overnight induction, compared to eGFP wild type band
Protocol: FIG. 3: SDS-PAGE analysis of the expression of eGFP Y40am in the presence of AzK with the MaPyIRS M129L V168C/MatRNACUA^Pyl mutant o-pair in comparison to MmOP and MaOP corroborates the fluorescence analysis. eGFP expression was assessed after overnight induction, two expressions of eGFP Y40AzK with the mutant MaOP are shown. eGFP wild type was expressed from the same plasmid carrying the MmOP. Samples of corresponding cell density were analyzed. The calculated molecular weight of eGFP is 28 kDa. M, molecular weight marker.
To further validate the finding, the expression of the reporter protein eGFP by SDS-PAGE was analyzed (e.g., FIG. 3).

B1: MmPyIRS/MmtRNACUA^Pyl: wildtype Methanosarcina mazei pyrrolysyl-tRNA synthetase/tRNA o-pair, the benchmark (protein, UniProt Q8PWY1 1-454, looked up)
Pyrrolysine--tRNA ligase: MDKKPLNTLISATGLWMSRTGTIHKIKHHEVSRSKIYIEMACGDHLVVNNSRSSRTARALRHHKYRKTCKRCRVSDEDLNKFLTKANEDQTSVKVKVVSAPTRTKKAMPKSVARAPKPLENTEAAQAQPSGSKFSPAIPVSTQESVSVPASVSTSISSISTGATASALVKGNTNPITSMSAPVQASAPALTKSQTDRLEVLLNPKDEISLNSGKPFRELESELLSRRKKDLQQIYAEERENYLGKLEREITRFFVDRGFLEIKSPILIPLEYIERMGIDNDTELSKQIFRVDKNFCLRPMLAPNLYNYLRKLDRALPDPIKIFEIGPCYRKESDGKEHLEEFTMLNFCQMGSGCTRENLESIITDFLNHLGIDFKIVGDSCMVYGDTLDVMHGDLELSSAVVGPIPLDREWGIDKPWIGAGFGLERLLKVKHDFKNIKRAARSESYYNGISTNL
modifications: with cognate tRNA Pyl
notes: wildtype Methanosarcina mazei pyrrolysyl-tRNA synthetase/tRNA o-pair, the benchmark
In the case of B1, the AllocK incorporation (eGFP Y40am [1]; AllocK 5 mM in medium, eGFP fluorescence correlated to cell density) is reported as “efficient incorporation”, the AzK incorporation efficiency (eGFP Y40am [1]; AzK 5 mM in medium, eGFP fluorescence correlated to cell density (D600)) is reported as “very well incorporated” and the BocK incorporation (eGFP Y40am [1]; BocK 5 mM in medium, eGFP fluorescence correlated to cell density) is reported as “efficient incorporation”. The “eGFP expression band intensity in the presence of AzK” value (eGFP Y40am [2]) was “markedly less intense”.
